Here are results for 1 molecule from US20040142470, “Recombinase-based system for construction of adenovirus vectors” (published 2004).

The data set concerns the target Cre recombinase (UniProt P06956 P06956:1-343). As to the kind of experiment: cell_activity; plaque formation in cotransfected 293Cre4 cells relative to homologous recombination; pCA36loxΔ gave plaques only in 293Cre cells (Table 2). The note with it: tags: stably expressed in 293Cre4 cells or from shuttle plasmid cassette (pLC2); chain copies: 4; BamHI/BglII overhangs. An excerpt: The efficiency of Cre/lox mediated recombination was compared with that of homologous recombination, by measuring the numbers of virus plaques obtained from cotransfections of 293 cells versus the numbers obtained following cotransfections of 293Cre4 cells (see, for example, U.S. patent application Ser. No. 08/473,168, filed Jun. 7, 1995; see also WO96/40955, hereby incorporated by reference).

Sequence of Cre recombinase (P06956 whole entry, one chain of several): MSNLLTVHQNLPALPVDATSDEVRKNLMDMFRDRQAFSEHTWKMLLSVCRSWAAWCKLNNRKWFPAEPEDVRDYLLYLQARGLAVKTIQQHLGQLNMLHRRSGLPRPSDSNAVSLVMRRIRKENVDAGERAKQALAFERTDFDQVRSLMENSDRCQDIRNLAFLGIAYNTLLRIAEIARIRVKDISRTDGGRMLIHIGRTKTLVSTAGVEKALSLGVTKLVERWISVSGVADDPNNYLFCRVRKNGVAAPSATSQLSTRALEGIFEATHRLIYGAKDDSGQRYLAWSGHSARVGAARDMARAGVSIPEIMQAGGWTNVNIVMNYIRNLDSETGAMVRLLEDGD

B1: loxP linker AB3233/3234 (in pBHG10lox and pCA36lox / pCA36loxΔ) (dsDNA)
DNA 1: GATCCAATAACTTCGTATAGCATACATTATACGAAGTTATAAGTACTGAATTCG
DNA 2: GATCCGAATTCAGTACTTATAACTTCGTATAATGTATGCTATACGAAGTTATTG
In the case of B1, the “relative plaque formation efficiency” value worked out at 35 fold.
